Seven variants from FireProtDB (doi:10.1021/bi00116a007) can be followed below.

To fix the notation:
B1: Aspartate aminotransferase, P00509 (parent)
chain: MFENITAAPADPILGLADLFRADERPGKINLGIGVYKDETGKTPVLTSVKKAEQYLLENETTKNYLGIDGIPEFGRCTQELLFGKGSALINDKRARTAQTPGGTGALRVAADFLAKNTSVKRVWVSNPSWPNHKSVFNSAGLEVREYAYYDAENHTLDFDALINSLNEAQAGDVVLFHGCCHNPTGIDPTLEQWQTLAQLSVEKGWLPLFDFAYQGFARGLEEDAEGLRAFAAMHKELIVASSYSKNFGLYNERVGACTLVAADSETVDRAFSQMKAAIRANYSNPPAHGASVVATILSNDALRAIWEQELTDMRQRIQRMRQLFVNTLQEKGANRDFSFIIKQNGMFSFSGLTKEQVLRLREEFGVYAVASGRVNVAGMTPDNMAPLCEAIVAVL

The data set covers variants of B1. The following applies: Escherichia coli (strain K12); pH 7.5; 25 °C; Urea; DSC; potassium-HEPES 40 mM; reversible: yes; structure 1AMQ; whole UniProt chain shown.

As to MFENITAAPADPILGLADLFRADERPGKINLGIGVYKDETGKTPVLTSVKKAEQYLLENETTKNYLGIDGIPEFGRATQELLFGKGSALINDKRARTAQTPGGTGALRVAADFLAKNTSVKRVWVSNPSWPNHKSVFNSAGLEVREYAYYDAENHTLDFDALINSLNEAQAGDVVLFHGCCHNPTGIDPTLEQWQTLAQLSVEKGWLPLFDFAYQGFARGLEEDAEGLRAFAAMHKELIVASSYSKNFGLYNERVGACTLVAADSETVDRAFSQMKAAIRANYSNPPAHGASVVATILSNDALRAIWEQELTDMRQRIQRMRQLFVNTLQEKGANRDFSFIIKQNGMFSFSGLTKEQVLRLREEFGVYAVASGRVNVAGMTPDNMAPLCEAIVAVL [C77A], the “ddG of mutation (higher = less stable)” value came to 1.3 kcal/mol, the denaturant m value turned out to be 2.13 kcal/mol/M, the “denaturant midpoint (higher = more stable)” value (“denaturant midpoint” below) amounted to 4.06 M and the unfolding free energy stood at 8.67 kcal/mol.
The corresponding values for MFENITAAPADPILGLADLFRADERPGKINLGIGVYKDETGKTPVLTSVKKAEQYLLENETTKNYLGIDGIPEFGRCTQELLFGKGSALINDKRARTAQTPGGTGALRVAADFLAKNTSVKRVWVSNPSWPNHKSVFNSAGLEVREYAYYDAENHTLDFDALINSLNEAQAGDVVLFHGCCHNPTGIDPTLEQWQTLAQLSVEKGWLPLFDFAYQGFARGLEEDAEGLRAFAAMHKELIVASSYSKNFGLYNERVGAATLVAADSETVDRAFSQMKAAIRANYSNPPAHGASVVATILSNDALRAIWEQELTDMRQRIQRMRQLFVNTLQEKGANRDFSFIIKQNGMFSFSGLTKEQVLRLREEFGVYAVASGRVNVAGMTPDNMAPLCEAIVAVL [C258A] are 2.5 kcal/mol, 2.14 kcal/mol/M, 3.51 M and 7.5 kcal/mol.
In the same order, the values of MFENITAAPADPILGLADLFRADERPGKINLGIGVYKDETGKTPVLTSVKKAEQYLLENETTKNYLGIDGIPEFGRCTQELLFGKGSALINDKRARTAQTPGGTGALRVAADFLAKNTSVKRVWVSNPSWPNHKSVFNSAGLEVREYAYYDAENHTLDFDALINSLNEAQAGDVVLFHGACHNPTGIDPTLEQWQTLAQLSVEKGWLPLFDFAYQGFARGLEEDAEGLRAFAAMHKELIVASSYSKNFGLYNERVGACTLVAADSETVDRAFSQMKAAIRANYSNPPAHGASVVATILSNDALRAIWEQELTDMRQRIQRMRQLFVNTLQEKGANRDFSFIIKQNGMFSFSGLTKEQVLRLREEFGVYAVASGRVNVAGMTPDNMAPLCEAIVAVL [C180A] are 2.2 kcal/mol, 2 kcal/mol/M, 3.87 M and 7.74 kcal/mol.
In the same order, the values of MFENITAAPADPILGLADLFRADERPGKINLGIGVYKDETGKTPVLTSVKKAEQYLLENETTKNYLGIDGIPEFGRCTQELLFGKGSALINDKRARTAQTPGGTGALRVAADFLAKNTSVKRVWVSNPSWPNHKSVFNSAGLEVREYAYYDAENHTLDFDALINSLNEAQAGDVVLFHGSCHNPTGIDPTLEQWQTLAQLSVEKGWLPLFDFAYQGFARGLEEDAEGLRAFAAMHKELIVASSYSKNFGLYNERVGACTLVAADSETVDRAFSQMKAAIRANYSNPPAHGASVVATILSNDALRAIWEQELTDMRQRIQRMRQLFVNTLQEKGANRDFSFIIKQNGMFSFSGLTKEQVLRLREEFGVYAVASGRVNVAGMTPDNMAPLCEAIVAVL [C180S] are 1.8 kcal/mol, 2.38 kcal/mol/M, 3.41 M and 8.12 kcal/mol.
For MFENITAAPADPILGLADLFRADERPGKINLGIGVYKDETGKTPVLTSVKKAEQYLLENETTKNYLGIDGIPEFGRCTQELLFGKGSALINDKRARTAQTPGGTGALRVAADFLAKNTSVKRVWVSNPSWPNHKSVFNSAGLEVREYAYYDAENHTLDFDALINSLNEAQAGDVVLFHGCCHNPTGIDPTLEQWQTLAQLSVEKGWLPLFDFAYQGFARGLEEDAEGLRAFAAMHKELIVASSYSKNFGLYNERVGACTLVAADSETVDRAFSQMKAAIRANYSNPPAHGASVVATILSNDALRAIWEQELTDMRQRIQRMRQLFVNTLQEKGANRDFSFIIKQNGMFSFSGLTKEQVLRLREEFGVYAVASGRVNVAGMTPDNMAPLAEAIVAVL [C389A], the “ddG of mutation (higher = less stable)” value was -3.2 kcal/mol, the denaturant m value was 3.87 kcal/mol/M, the “denaturant midpoint” value came to 3.41 M and the unfolding free energy is 13.2 kcal/mol.
The corresponding values for MFENITAAPADPILGLADLFRADERPGKINLGIGVYKDETGKTPVLTSVKKAEQYLLENETTKNYLGIDGIPEFGRATQELLFGKGSALINDKRARTAQTPGGTGALRVAADFLAKNTSVKRVWVSNPSWPNHKSVFNSAGLEVREYAYYDAENHTLDFDALINSLNEAQAGDVVLFHGAAHNPTGIDPTLEQWQTLAQLSVEKGWLPLFDFAYQGFARGLEEDAEGLRAFAAMHKELIVASSYSKNFGLYNERVGAATLVAADSETVDRAFSQMKAAIRANYSNPPAHGASVVATILSNDALRAIWEQELTDMRQRIQRMRQLFVNTLQEKGANRDFSFIIKQNGMFSFSGLTKEQVLRLREEFGVYAVASGRVNVAGMTPDNMAPLAEAIVAVL [C77A C180A C181A C258A C389A] are 1 kcal/mol, 2.83 kcal/mol/M, 3.16 M and 8.92 kcal/mol.
In the case of MFENITAAPADPILGLADLFRADERPGKINLGIGVYKDETGKTPVLTSVKKAEQYLLENETTKNYLGIDGIPEFGRCTQELLFGKGSALINDKRARTAQTPGGTGALRVAADFLAKNTSVKRVWVSNPSWPNHKSVFNSAGLEVREYAYYDAENHTLDFDALINSLNEAQAGDVVLFHGCAHNPTGIDPTLEQWQTLAQLSVEKGWLPLFDFAYQGFARGLEEDAEGLRAFAAMHKELIVASSYSKNFGLYNERVGACTLVAADSETVDRAFSQMKAAIRANYSNPPAHGASVVATILSNDALRAIWEQELTDMRQRIQRMRQLFVNTLQEKGANRDFSFIIKQNGMFSFSGLTKEQVLRLREEFGVYAVASGRVNVAGMTPDNMAPLCEAIVAVL [C181A], the “ddG of mutation (higher = less stable)” value is 1.6 kcal/mol, the denaturant m value came to 2.35 kcal/mol/M, the “denaturant midpoint” value is 3.53 M and the unfolding free energy is 8.32 kcal/mol.
